Measured values as given in patent US20160102139A1 (NATIONAL UNIVERSITY CORPORATION CHIBA UNIVERSITY, published 2016).
Substitutions are numbered along the chain they refer to.

T1: mouse Myl9 (myosin regulatory light chain polypeptide 9) (mouse, UniProt Q9CQ19 2-172)
T1 construct: Native protein in mouse bone marrow extract (BM lysate) or mouse tissues; also called Myl9/12
T1 sequence: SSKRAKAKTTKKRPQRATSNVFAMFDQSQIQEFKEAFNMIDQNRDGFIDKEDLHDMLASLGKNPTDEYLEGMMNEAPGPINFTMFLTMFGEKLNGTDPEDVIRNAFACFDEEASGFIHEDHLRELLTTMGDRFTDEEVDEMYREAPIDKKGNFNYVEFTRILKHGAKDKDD

T2: mouse Myl12b (myosin regulatory light chain polypeptide 12b) (mouse, UniProt Q3THE2 1-172, limits assumed)
T2 construct: Native protein in mouse bone marrow extract (BM lysate) or mouse tissues; also called Myl9/12
T2 sequence: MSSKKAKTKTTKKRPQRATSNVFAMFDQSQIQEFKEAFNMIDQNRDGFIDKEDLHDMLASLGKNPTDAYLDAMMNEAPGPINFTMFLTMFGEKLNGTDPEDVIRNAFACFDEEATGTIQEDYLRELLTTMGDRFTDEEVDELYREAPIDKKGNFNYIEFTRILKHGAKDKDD

B1: 3xFlag mCD69EC treated with the deglycosylation enzyme PNGase F (receptor, mouse, UniProt P37217 62-199, looked up)
chain: NVGKYNCPGLYEKLESSDHHVATCKNEWISYKRTCYFFSTTTKSWALAQRSCSEDAATLAVIDSEKDMTFLKRYSGELEHWIGLKNEANQTWKWANGKEFNSWFNLTGSGRCVSVNHKNVTAVDCEANFHWVCSKPSR
modifications: N-glycans removed by PNGase F (500 U per 1 ug protein)
notes: extracellular domain; Same polypeptide as m2, after deglycosylation with N-glycosidase PNGase F; also called CD69EC previously treated with PNGase F; deglycosylated 3xFLAG mCD69EC; not shown: N-terminal 3xFlag tag from vector p3xFLAG CMV-9
B2: mouse CD69 extracellular domain protein having 3xFlag-tag added thereto (3xFlag mCD69EC) (receptor, UniProt P37217 62-199, looked up)
chain: B1 chain
notes: extracellular domain; also called mCD69EC protein; not shown: N-terminal 3xFlag tag from vector p3xFLAG CMV-9
B3: mouse Myl12a (myosin regulatory light chain polypeptide 12a) (ligand)
chain: T2 sequence with K5R, L61M, A68E, T115I
notes: Native protein in mouse bone marrow extract (BM lysate) or mouse tissues; also called Myl9/12

What was measured:
Assay in all cases: immunoprecipitation with anti-Flag M2 antibody from bone marrow extract, immunoblot with anti-Myl9/12 antibody
[1] = target: T1, mouse Myl9 (myosin regulatory light …)
Experimental: (§1) Then, whether the binding of Myl9, Myl12a, and Myl12b with CD69 actually occurred was investigated. Firstly, mCD69EC sequence was inserted to p3xFLAG CMV-9 (Sigma-Aldrich Co. LLC.) having Flag tag incorporated at the N-terminal to produce an expression vector of mCD69EC sequence having Flag-Tag added at the N-terminal. The expression vector was transformed to 293 T cells to overexpress 3xFlag mCD69EC, and then a cell extract was prepared. As a control, a cell extract was prepared from 293 T cells overexpressing 3xFlag peptide. 3xFlag mCD69EC protein or 3xFlag peptide was purified from the cell extract using anti-[…] (SEQ ID NO: 21) tag antibody beads (Wako Pure Chemical Industries, Ltd.). In this case, […] is a peptide represented by a single letter code for an amino acid. Those purified proteins were each subjected to a reaction with a bone marrow extract (BM lysate) in the same manner as described above and the resultant products were subjected to immunoprecipitation using anti-Flag M2 antibody (Sigma-Aldrich Co. LLC.) and protein-G (GE Healthcare). After the immunoprecipitation was performed, the precipitates were separated by SDS-PAGE and transferred to a polyvinylidene difluoride (PVDF) membrane (Bio-Rad Laboratories, Inc.). Subsequently, immunoblotting was performed using an antibody which recognized Myl9, Myl12a, and Myl12b (hereinafter referred to as anti-Myl9/12 antibody). That is, each protein was detected by ChemiDocXRS+ (Bio-Rad Laboratories, Inc.) with ECL detection reagents (GE Healthcare) using rabbit anti-Myl9 antibody (Abcam plc.) as a primary antibody and horseradish peroxidase (HRP)-labeled anti-rabbit IgG antibody (Cell Signaling Technology, Inc.) as a secondary antibody. Deglycosylation treatment of the mCD69EC protein was performed by adding 500 U of N-glycosidase PNGase F (New England Biolabs Ltd.) to 1 μg of 3xFLAG mCD69EC.

[2] = target: T2, mouse Myl12b (myosin regulatory light …)
Experimental: as §1

[3] = target: B1
Experimental: as §1

[4] = target: B2
Experimental: as §1

B1: binds [1]; binds [2].

B2: binds [1]; binds [2].

B3: binds [3]; binds [4].
